Test results from the supplement of paper PMC10567573.

B1: BTBD10 (parent)
chain: FVYENAKEGARNIRTSERVTLIVD
B2: C8orf76 (parent)
chain: KLAEAYLNLGPALSAALASSQKQH

Variants of: B1
Experiment: protein stability index of a GFP-peptide fusion (GPS, HEK-293T) (PSI 1-6); higher = more stable
Conditions: c terminus: a fixed tail appended
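Also: lentivirally expressed fusions sorted by FACS into six bins by GFP to DsRed ratio, PSI derived from sequencing read proportions per bin multiplied by bin number.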

Variant | protein stability index
N5K | 1.94
N5F | 1.9
N5C | 2.42
N5M | 1.61
N5Q | 2.64
N5I | 1.61
N5T | 2.25
N5A | 1.9
N5G | 2.47
N5P | 2.52
N5E | 2.35
N5L | 1.34
N5D | 2.21
N5V | 1.63
N5R | 1.95
N5W | 3.23
N5S | 1.54
N5Y | 1.61
N5H | 2.19
Y3H | 2.11
Y3T | 2.22
Y3N | 2.48
Y3S | 1.96
Y3P | 1.72

Variant | protein stability index
Y3G | 2.35
Y3K | 2.08
Y3D | 3.22
Y3M | 2.2
Y3L | 1.92
Y3R | 2.73
Y3Q | 2.62
Y3W | 2.19
Y3E | 3.75
Y3C | 2.17
Y3A | 2.08
Y3I | 2.26
Y3V | 2.22
Y3F | 2.12
A10G | 2.08
A10K | 2.32
A10L | 1.89
A10V | 2.1
A10T | 2.03
A10I | 2
A10F | 2.18
A10N | 2.16
A10R | 2.2
A10C | 1.84

Variant | protein stability index
A10Q | 2.05
A10P | 2.7
A10D | 2.26
A10E | 2.79
A10M | 1.62
A10S | 2.01
A10Y | 1.86
A10H | 1.58
A10W | 2.32
A6E | 2.8
A6K | 2.13
A6M | 2.08
A6L | 1.69
A6P | 2.41
A6D | 2.67
A6T | 2.5
A6H | 2.1
A6S | 1.78
A6V | 1.85
A6W | 2.05
A6N | 2.43
A6G | 1.97
A6I | 1.79
A6Y | 1.57

Variant | protein stability index
A6R | 1.84
A6C | 1.82
A6F | 1.8
A6Q | 1.96
R11F | 2.38
R11A | 2.29
R11E | 3.09
R11T | 2.19
R11D | 2.82
R11P | 1.84
R11V | 2.3
R11L | 2.67
R11C | 2.07
R11Q | 2.16
R11G | 2.31
R11H | 2.16
R11Y | 1.59
R11M | 1.59
R11I | 1.75
R11K | 1.9
R11N | 1.83
R11S | 2.18
E8Q | 1.8
E8W | 2.04

Variant | protein stability index
E8R | 2.83
E8S | 1.72
E8M | 2.11
E8K | 1.93
E8Y | 1.94
E8I | 1.87
E8L | 2.29
E8P | 2.44
E8D | 2.28
E8C | 2.11
E8F | 1.86
E8V | 1.47
E8N | 1.81
E8H | 2.25
E8A | 1.52
E8T | 2.11
E8G | 1.86
F1V | 3.7
F1W | 2.55
F1P | 3.46
F1G | 3.33
F1M | 3.78
F1K | 3.28
F1I | 2.71

Variant | protein stability index
F1R | 3.3
F1H | 3.69
F1Y | 2.27
F1S | 3.23
F1E | 3.94
F1L | 3.05
F1Q | 2.9
F1C | 2.5
F1D | 3.29
F1N | 3.75
F1A | 3.21
F1T | 3.06
N12D | 1.93
N12M | 1.56
N12P | 2.65
N12A | 1.82
N12S | 1.97
N12V | 1.17
N12E | 2.08
N12R | 1.96
N12L | 1.34
N12K | 2.19
N12Q | 1.7
N12G | 1.98

Variant | protein stability index
N12F | 2.65
N12Y | 2.61
N12W | 3.12
N12C | 1.51
N12T | 1.93
N12H | 1.5
N12I | 1.84
K7S | 2.56
K7F | 1.85
K7L | 1.42
K7D | 2.58
K7R | 1.86
K7G | 1.99
K7I | 2.5
K7N | 2.54
K7P | 2.4
K7V | 1.93
K7M | 1.82
K7C | 2.32
K7A | 2.23
K7Q | 2.19
K7W | 1.63
K7E | 2.74
K7T | 2.11

Variant | protein stability index
K7Y | 1.75
K7H | 1.95
V2C | 2.33
V2G | 3.31
V2E | 3.83
V2H | 3.07
V2Y | 2.45
V2A | 2.78
V2Q | 3.07
V2L | 2.41
V2N | 3.58
V2P | 3.53
V2T | 3.08
V2S | 3.27
V2R | 3.04
V2W | 1.97
V2I | 2.37
V2M | 2.6
V2K | 3.06
V2D | 3.56
V2F | 2.31
E4Y | 1.92
E4K | 2.25
E4S | 1.66

Variant | protein stability index
E4P | 1.69
E4D | 2.08
E4G | 1.75
E4M | 1.91
E4T | 2.18
E4A | 1.82
E4L | 1.48
E4Q | 1.94
E4W | 1.83
E4F | 1.65
E4C | 2.56
E4H | 2.16
E4I | 2.35
E4R | 1.91
E4V | 2.83
E4N | 1.57
I13D | 2.52
I13E | 2.34
I13F | 2.43
I13A | 1.77
I13C | 1.8
G9V | 1.77
G9F | 2.31
G9S | 1.8

Variant | protein stability index
G9A | 1.85
G9Y | 1.41
G9D | 2.49
G9M | 2.47
G9P | 2.02
G9R | 2.17
G9C | 1.83
G9I | 1.74
G9T | 2.09
G9E | 2.33
G9L | 2.12
G9Q | 2.09
G9N | 2.15
G9H | 1.72
G9K | 1.7

Variants of: B2
Experiment: as above
Conditions: c terminus: a fixed tail appended

Variant | protein stability index
Q21S | 2.38
Q21P | 2.18
Q21I | 2.71
Q21G | 3.38
Q21K | 2.1
Q21Y | 4.14
Q21F | 2.97
Q21M | 3.44
Q21V | 2.99
Q21E | 1.78
Q21D | 1.97
Q21T | 3.01
Q21W | 2.31
Q21H | 2.42
Q21L | 1.8
Q21R | 3.07
Q21A | 4.28
Q21N | 3.31
S20I | 4.43
S20A | 3.74
S20C | 3.5
S20D | 1.48
S20E | 1.3
S20Y | 2.2
S20H | 3.47
S20V | 3.17

Variant | protein stability index
S20M | 2.44
S20P | 2.23
S20R | 2.13
S20N | 2.26
S20G | 2.46
S20T | 1.9
S20W | 3.33
S20L | 3.21
S20K | 1.6
K22C | 3.44
K22Q | 2.76
K22S | 3.07
K22P | 4.17
K22N | 1.83
K22L | 3.34
K22M | 2.41
K22Y | 3.64
K22H | 2.52
K22W | 4.77
K22R | 4.21
K22E | 4.71
K22I | 3.1
K22A | 2.91
K22T | 4.43
K22F | 2.69
K22G | 3.43

Variant | protein stability index
K22D | 1.69
Q23F | 2.92
Q23P | 2.57
Q23R | 2.04
Q23H | 2.74
Q23K | 2.07
Q23N | 1.99
Q23A | 3.15
Q23M | 2.85
Q23W | 2.43
Q23T | 2.83
Q23I | 2.73
Q23Y | 2.51
Q23V | 2.9
Q23C | 2.22
Q23D | 1.97
Q23L | 2.86
Q23E | 3.74
Q23S | 2.91
H24V | 3.61
H24F | 3.48
H24A | 4.29
H24T | 2.79
H24E | 1.47
H24D | 1.67
H24Q | 3.32

Variant | protein stability index
H24M | 3.02
H24C | 3.67
H24P | 2.62
H24I | 2.4
H24Y | 2.56
H24K | 1.76
H24W | 1.9
H24R | 3
H24L | 2.44
H24N | 2.29
H24S | 2.83
S19I | 3.22
S19R | 2.74
S19P | 2.08
S19N | 3
S19W | 2.57
S19H | 3.15
S19K | 2.51
S19Q | 2.43
S19L | 2.35
S19T | 3.75
S19Y | 2.84
S19G | 3.14
S19M | 3.29
S19V | 2.64
